Assay results: paper PMC4954732

Assays:
[1] = tested on: CBC (HapB/HapC/HapE) (Aspergillus fumigatus); assay: SPR; details: SPR on immobilised biotinylated duplexes, 1:1 model with mass transport; buffer, salt, pH and temperature not stated (protocols of refs 19, 54)
[2] = molecular target: T1, SrbA bHLHZ (Aspergillus fumigatus) (UniProt Q4WIN1); assay: SPR; details: SPR on immobilised biotinylated duplexes, 1:1 model with mass transport; buffer, salt, pH and temperature not stated (protocols of refs 19, 54)
T1 sequence: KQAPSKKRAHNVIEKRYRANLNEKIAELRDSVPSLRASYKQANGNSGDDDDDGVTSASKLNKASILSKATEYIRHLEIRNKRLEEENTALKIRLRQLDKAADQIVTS

Row | Sequence | Kd [2] | further results
1 | GCTGAGCCGAATGAAAGTTGCCTAATTACTAAGGTGT (double strand) [cyp51A-293] | – | Kd [1]: 74.4 nM
2 | CGGCTCAGCACACATC (double strand) [SRE2 (cyp51Ap-295-16)] | 273 nM | –
3 | AGAATCACGCGGTCCG (double strand) [SRE1 (cyp51Ap-320-16)] | 22.8 nM | –
4 | GCTGAGCCGAATGAATCACGCGGTCCGGATGTGTGCT (double strand) [cyp51A-TR34] | – | fold decrease in affinity (fold lower affinity than cyp51A-293) [1]: 8
